Target: T1, ROCK1 kinase domain (residue 1-415) protein (human, UniProt Q13464 1-415)
T1 construct: ROCK1 kinase domain, residues 1-415, expressed in Sf9 cells; source: Spodoptera frugiperda cells (Sf9)
Experiment: SPR; Biacore T200; ROCK1 kinase domain immobilised on CM5 chip by amine coupling (3400 RU); full-length TRIM40 injected at eight concentrations, 30 μl/min, HBS-EP+ buffer (10 mM HEPES, 150 mM NaCl, 3 mM EDTA, 0.05% P20), 25 °C
Conditions: both partners purified

T1 sequence (Q13464 1-415): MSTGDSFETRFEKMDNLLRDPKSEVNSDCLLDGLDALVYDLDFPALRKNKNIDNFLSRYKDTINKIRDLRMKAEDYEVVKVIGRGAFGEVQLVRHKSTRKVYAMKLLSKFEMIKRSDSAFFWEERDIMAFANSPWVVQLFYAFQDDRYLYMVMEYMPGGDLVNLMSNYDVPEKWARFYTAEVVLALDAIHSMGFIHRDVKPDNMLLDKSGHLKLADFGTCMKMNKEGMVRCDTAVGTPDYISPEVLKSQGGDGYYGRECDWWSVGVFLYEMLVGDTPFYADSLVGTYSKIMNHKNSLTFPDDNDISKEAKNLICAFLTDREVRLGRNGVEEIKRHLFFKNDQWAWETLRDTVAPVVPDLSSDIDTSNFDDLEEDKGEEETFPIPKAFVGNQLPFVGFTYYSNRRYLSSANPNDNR

Kd: 2250 nM
B1: Full length TRIM40 protein (recombinant, for SPR) (natural protein, human, UniProt Q6P9F5 1-258, looked up)
chain: MIPLQKDNQEEGVCPICQESLKEAVSTNCGHLFCRVCLTQHVEKASASGVFCCPLCRKPCSEEVLGTGYICPNHQKRVCRFCEESRLLLCVECLVSPEHMSHHELTIENALSHYKERLNRRSRKLRKDIAELQRLKAQQEKKLQALQFQVDHGNHRLEAGPESQHQTREQLGALPQQWLGQLEHMPAEAARILDISRAVTQLRSLVIDLERTAKELDTNTLKNAGDLLNRSAPQKLEVIYPQLEKGVSELLLQPPQKL
notes: full length TRIM40 expressed in E. coli BL21 (DE3); source: Escherichia coli BL21 (DE3)
